According to US20100272737A1 (AGENCY FOR SCIENCE TECHNOLOGY AND RESEARCH, published 2010):

Biological target: T1, Flag-tagged Cavβ3-subunit (rat, UniProt P54287 1-484)
T1 construct: whole, on cells; Flag-tagged in co-immunoprecipitation, pull-down and immunofluorescence; also called Flag-Cavβ3; N-Flag Cavβ3-subunits
Experiment: dissociation of β3 from GST-AID by peptide, Western blot of the supernatant
Procedure: B, BARP displaces the Caᵥβ3-subunit from the AID. In vivo expressed Caᵥβ3-subunits were pulled-down using a GST-AID fusion protein and the complex then incubated with increasing amounts of AID or BARP Domain I peptide. The Caᵥβ3-subunit displaced from the GST-AID was monitored by Western blot.
Preparation of cell homogenates lysed into a buffer containing (50 mM Tris-HCl (pH 7.5), 100 mM NaCl, 1 mM MgCl₂, 0.5% Triton) supplemented with proteases inhibitors, co-immunoprecipitation and Western blot analysis using the generated antibodies together with monoclonal anti-FLAG(M2; Sigma), rabbit anti-GST (Santa Cruz Biotechnology), rabbit Caᵥ1.2 (Chemicon International), Caᵥ2.1(Alomone labs), Caᵥ2.2 (Calbiochem), Caᵥβ₃ (Alomone labs) antibodies were carried out essentially as described in. Brain, skeletal muscle and heart lysates were purchased from Zyagen Laboratories. In vitro synthesized BARP was produced by using the TNT quick coupled transcription/translation systems (Promega). For the dissociation experiments, an AID peptide ([…]) and a BARP domain I peptide ([…]) were synthesized (Mimotopes). […] After extensive wash to remove unassociated β₃-subunits, increasing concentration of peptide (30, 60, 300, 600 nM) were added. After an incubation of four hours, 10% of the supernatant containing the dissociated β₃-subunit were loaded on SDS-PAGE and subjected to Western blot analysis. […]

T1 sequence (P54287 whole entry): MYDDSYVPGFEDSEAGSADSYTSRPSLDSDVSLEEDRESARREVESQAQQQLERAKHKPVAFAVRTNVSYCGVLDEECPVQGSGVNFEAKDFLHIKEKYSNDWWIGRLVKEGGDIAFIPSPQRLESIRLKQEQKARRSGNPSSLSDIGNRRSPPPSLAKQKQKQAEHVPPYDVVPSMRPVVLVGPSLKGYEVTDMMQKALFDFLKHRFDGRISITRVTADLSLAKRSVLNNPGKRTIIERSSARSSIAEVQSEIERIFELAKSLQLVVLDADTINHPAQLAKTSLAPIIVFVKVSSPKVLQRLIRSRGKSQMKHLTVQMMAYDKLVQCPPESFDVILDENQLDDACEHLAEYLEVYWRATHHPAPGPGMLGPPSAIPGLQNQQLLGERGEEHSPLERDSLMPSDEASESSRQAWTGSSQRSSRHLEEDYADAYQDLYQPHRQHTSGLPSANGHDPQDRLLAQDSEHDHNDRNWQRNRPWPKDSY

- binding result: binds
B1: BARP domain I peptide (peptide)
peptide: SYRDLWSLRASLELHAATASD
notes: Synthesized by Mimotopes; also called AID-like BARP peptide
